{
  "source": "patent US20230340151A1",
  "about": "(Pfizer, published 2023)",
  "binders": {"B1": {"name": "GUCY2C-1608 (bispecific antibody)", "chain 1": "DIQLTQSPSSLSASVGDRVTITCRASESVDYYGSSLLQWYQQKPGKAPKLLIYAASKLASGVPSRFSGSGSGTDFTLTISSLQPEDFATYYCQQTRKAYTFGQGTKLEIKGGGSGGGGEVQLVESGGGLVQPGGSLRLSCAASGFTFSDYYMTWVRQAPGKGLEWVAFIRNQARGYTSDHNPSVKGRFTISRDNAKNSLYLQMNSLRAEDTAVYYCARDRPSYYVLDYWGQGTTVTVSSGCPPCPAPEAAGAPSVFLFPPKPKDTLMISRTPEVTCVVVDVSHEDPEVKFNWYVDGVEVHNAKTKPREEQYNSTYRVVSVLTVLHQDWLNGKEYKCKVSNKALPAPIEKTISKAKGQPREPQVCTLPPSREEMTKNQVSLWCLVKGFYPSDIAVEWESNGQPENNYKTTPPVLDSDGSFFLYSKLTVDKSRWQQGNVFSCSVMHEALHNHYTQKSLSLSPG", "chain 2": "DIQMTQSPSSLSASVGDRVTITCTSSQSLFNVRSQKNYLAWYQQKPGKAPKLLIYWASTRESGVPSRFSGSGSGTDFTLTISSLQPEDFATYYCKQSYDLFTFGGGTKVEIKGGGGSGGGGEVQLVESGGGLVQPGGSLRLSCAASGFTFSSYWMHWVRQAPGKGLEWIGEIKPSNELTNVHEKFKDRFTISVDKAKNSAYLQMNSLRAEDTAVYYCTRTITTTEGYWFFDVWGQGTLVTVSSGCPPCPAPEAAGAPSVFLFPPKPKDTLMISRTPEVTCVVVDVSHEDPEVKFNWYVDGVEVHNAKTKPREEQYNSTYRVVSVLTVLHQDWLNGKEYKCKVSNKALPAPIEKTISKAKGQPREPQVYTLPPCREEMTKNQVSLSCAVKGFYPSDIAVEWESNGQPENNYKTTPPVLDSDGSFFLVSKLTVDKSRWQQGNVFSCSVMHEALHNHYTQKSLSLSPG", "notes": "also called GUCY2c CD3 bispecific"}},
  "key": {"[1]": {"molecular_target": "T1, CID1878 (human-chicken GUCY2c chimera) (human/chicken)", "T1 chain": "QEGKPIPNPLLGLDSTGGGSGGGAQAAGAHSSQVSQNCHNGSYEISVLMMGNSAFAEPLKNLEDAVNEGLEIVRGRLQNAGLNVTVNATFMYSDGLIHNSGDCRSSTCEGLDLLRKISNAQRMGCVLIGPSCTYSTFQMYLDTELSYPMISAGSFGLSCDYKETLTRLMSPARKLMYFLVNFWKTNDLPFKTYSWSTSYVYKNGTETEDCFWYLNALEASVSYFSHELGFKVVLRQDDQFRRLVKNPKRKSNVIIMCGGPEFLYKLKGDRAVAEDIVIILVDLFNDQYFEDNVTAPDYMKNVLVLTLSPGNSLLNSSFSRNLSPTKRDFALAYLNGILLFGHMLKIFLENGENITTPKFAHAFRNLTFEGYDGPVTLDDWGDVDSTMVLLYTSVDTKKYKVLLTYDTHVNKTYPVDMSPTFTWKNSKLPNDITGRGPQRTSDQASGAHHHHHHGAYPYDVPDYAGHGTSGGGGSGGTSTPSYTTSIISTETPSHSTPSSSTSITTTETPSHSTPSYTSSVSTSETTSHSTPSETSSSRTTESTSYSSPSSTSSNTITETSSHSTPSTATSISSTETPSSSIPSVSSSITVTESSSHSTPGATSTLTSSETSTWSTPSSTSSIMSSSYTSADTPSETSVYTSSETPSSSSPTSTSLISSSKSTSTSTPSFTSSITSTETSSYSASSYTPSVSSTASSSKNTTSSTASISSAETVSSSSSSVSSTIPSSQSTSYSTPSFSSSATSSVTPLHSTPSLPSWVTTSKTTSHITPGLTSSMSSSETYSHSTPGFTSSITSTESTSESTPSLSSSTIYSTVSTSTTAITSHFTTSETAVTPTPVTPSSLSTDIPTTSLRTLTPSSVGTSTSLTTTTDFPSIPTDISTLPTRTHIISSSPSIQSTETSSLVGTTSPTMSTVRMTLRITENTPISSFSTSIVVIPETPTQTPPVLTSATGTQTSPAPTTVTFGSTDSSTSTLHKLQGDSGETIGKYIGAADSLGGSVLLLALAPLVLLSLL", "experiment": "flow cytometry on cells displaying the construct", "excerpt": "(§1) Cells were then washed three times with PBS+0.5% BSA buffer. […] Cells were washed three times with PBS+0.5% BSA buffer and then analyzed on a flow cytometer.\n(§2) MFI (median fluorescence intensity) of anti-GUCY2c antibody binding to the cells was normalized to expression on cell surface measured by MFI of anti-tag antibodies. All the cells expressed V5 and HA on the cell surface for expression normalization."}, "[2]": {"molecular_target": "T2, CID1876 (human-chicken GUCY2c chimera) (human/chicken)", "T2 chain": "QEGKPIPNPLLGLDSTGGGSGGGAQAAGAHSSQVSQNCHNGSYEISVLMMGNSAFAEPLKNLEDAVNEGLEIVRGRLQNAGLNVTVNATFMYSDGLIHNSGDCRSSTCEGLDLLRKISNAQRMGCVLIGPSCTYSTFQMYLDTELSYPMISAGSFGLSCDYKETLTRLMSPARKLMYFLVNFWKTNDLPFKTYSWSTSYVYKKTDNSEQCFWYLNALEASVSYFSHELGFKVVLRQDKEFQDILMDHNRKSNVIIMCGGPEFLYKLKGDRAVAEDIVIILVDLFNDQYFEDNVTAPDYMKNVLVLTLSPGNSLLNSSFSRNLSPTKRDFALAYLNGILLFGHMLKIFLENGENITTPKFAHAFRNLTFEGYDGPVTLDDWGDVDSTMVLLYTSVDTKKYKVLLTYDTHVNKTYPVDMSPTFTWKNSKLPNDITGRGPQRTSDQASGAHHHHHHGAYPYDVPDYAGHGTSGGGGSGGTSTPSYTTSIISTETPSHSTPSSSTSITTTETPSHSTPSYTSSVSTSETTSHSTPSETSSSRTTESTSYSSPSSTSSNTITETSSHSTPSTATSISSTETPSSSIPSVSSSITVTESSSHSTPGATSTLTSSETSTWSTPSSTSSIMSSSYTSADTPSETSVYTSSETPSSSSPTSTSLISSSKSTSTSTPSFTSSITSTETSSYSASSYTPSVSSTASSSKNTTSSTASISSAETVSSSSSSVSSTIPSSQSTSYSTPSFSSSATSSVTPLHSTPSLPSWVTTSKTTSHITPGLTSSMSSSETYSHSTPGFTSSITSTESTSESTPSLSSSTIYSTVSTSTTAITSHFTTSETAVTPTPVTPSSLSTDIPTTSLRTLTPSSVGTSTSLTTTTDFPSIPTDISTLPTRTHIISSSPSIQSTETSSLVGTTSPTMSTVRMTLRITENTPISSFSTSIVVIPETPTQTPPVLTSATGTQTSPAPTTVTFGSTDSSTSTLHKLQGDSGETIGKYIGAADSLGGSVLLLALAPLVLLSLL", "experiment": "flow cytometry on cells displaying the construct", "excerpt": "as §1, §2"}, "[3]": {"molecular_target": "T3, Cynomolgus GUCY2C-ECD Cleaved (cynomolgus, UniProt P25092 24-430 (human entry))", "T3 construct": "also called CyGUCY2C", "T3 chain": "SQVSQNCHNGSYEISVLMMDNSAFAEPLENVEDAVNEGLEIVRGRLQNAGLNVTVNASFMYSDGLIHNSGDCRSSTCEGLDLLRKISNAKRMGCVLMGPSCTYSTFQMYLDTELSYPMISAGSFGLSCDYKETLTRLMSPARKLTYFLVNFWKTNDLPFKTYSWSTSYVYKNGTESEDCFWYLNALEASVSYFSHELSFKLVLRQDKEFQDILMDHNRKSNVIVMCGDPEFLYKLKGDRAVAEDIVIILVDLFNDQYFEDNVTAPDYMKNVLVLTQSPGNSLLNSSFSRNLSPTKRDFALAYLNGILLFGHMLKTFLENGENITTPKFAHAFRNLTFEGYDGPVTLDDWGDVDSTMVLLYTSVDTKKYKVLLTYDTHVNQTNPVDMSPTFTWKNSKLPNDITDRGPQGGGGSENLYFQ", "experiment": "SPR, GUCY2c directly immobilized, 37 C", "description": "Human GUCY2c, cyno GUCY2c and mouse GUCY2c were directly immobilized onto three different flow cells of a CM5 Sensor Chip (BR100530, GE Healthcare) surface using an amine coupling kit (BR100050, GE Healthcare) according to the manufacturer's protocol. […] Flow cell 1 was used as a reference flow cell. […] The dissociation was monitored for 400 seconds and the surface was regenerated with 10 mM Glycine pH 2.1. The running and sample buffer was 10 mM HEPES pH 7.4, 0.15 M NaCl, 3 mM EDTA, 0.05% P-20 (HBS-EP+). The data were double referenced. Binding affinities and rate constants were determined by fitting the resulting sensorgram data to a 1:1 Langmuir model in BIACORE™ T200 Evaluation software version 3.0 (GE Healthcare)."}},
  "data": [
    {"binder": "B1", "values": [
      {"measurement": "binding result", "setting": "[1]", "result": "binds"},
      {"measurement": "binding result", "setting": "[2]", "result": "binds"},
      {"measurement": "Kd", "setting": "[3]", "result": 8.68, "unit": "nM"},
      {"measurement": "koff", "setting": "[3]", "result": 0.00166, "unit": "s⁻¹"},
      {"measurement": "kon", "setting": "[3]", "result": 191000, "unit": "M⁻¹ s⁻¹"}
    ]}
  ]
}
